Measurements published in the RNAGym collection of RNA variant scans (doi:10.7554/elife.80360).

B1: Twister Ribozyme (parent)
chain: AACACUGCCAAUGCCGGUCCCAAGCCCGGAUAAAAGUGGAGGGGGCGG

Variants of: B1
Assay: self-cleavage, relative activity (ratio to wild type); higher = more cleavage; co-transcriptional

Variant | self-cleavage
G7U | 0.143
G7C | 0.0658
G7A | 0.615
C8G A30C | 0.122
C8G A30U | 0.409
C8G A30G | 0.643
U6G U18G | 0.0678
C8A G17U | 0.0971
C8A G17C | 0.0615
C8A G17A | 0.12
C8G C26G | 0.12
C8U A33G | 0.25
C8U A33U | 0.531
C8U A33C | 0.447
C8G C21A | 0.041
C8G C21U | 0.0624
G7A G17C | 0.0766
G7U A23G | 0.0791
G7U A23C | 0.0594
C8A G42C | 0.285
C8A G42A | 0.141
C8A G42U | 0.168
G7C G28C | 0.0717
G7C A32U | 0.0629

Variant | self-cleavage
G7U C27A | 0.0728
G7U C27U | 0.079
G7C G24C | 0.059
G7C G24U | 0.0628
G7U G47A | 0.0641
G7A A40G | 0.157
G7U G29U | 0.0673
G7A U31A | 0.599
G7U A33C | 0.0647
G7U A33G | 0.0484
U6G G39A | 0.12
G7A C26A | 0.0788
G7U G24A | 0.0738
G7A C20A | 0.0724
G7A C20G | 0.0749
G7C C46U | 0.0589
G7C C46A | 0.0371
G7C C46G | 0.0721
G7U G43U | 0.102
G7C G13U | 0.0637
G7A A23G | 0.0819
C8G U12G | 0.676
G7C C26U | 0.0512
G7U G44C | 0.0951

Variant | self-cleavage
G7C C21A | 0.0462
C8G C9A | 0.0971
G7C G29U | 0.0704
C8G A23C | 0.0689
G7U A40U | 0.072
G7U A40C | 0.0967
G7U A40G | 0.0793
G7U C14G | 0.0477
G7U C14A | 0.133
G7U A30G | 0.163
G7A C19U | 0.122
G7A C19G | 0.0847
U6G G43C | 0.13
U6G G43A | 0.144
C8A A34G | 0.701
C8A A34U | 0.675
C8G G44U | 0.275
C8G G44A | 0.513
C8G G16A | 0.061
C8G G16C | 0.0753
G7C U31A | 0.0718
G7C U31C | 0.0704
G7C U31G | 0.0544
C8A G13C | 0.0783

Variant | self-cleavage
C8A G48U | 0.257
C8A G48C | 0.346
C8A G48A | 0.215
G7A G38U | 0.168
G7C A11G | 0.106
C8A C20A | 0.0847
C8A C20U | 0.0847
G7C G44C | 0.0685
C8A A30U | 0.284
C8A A30C | 0.147
G7U A34U | 0.0892
G7C G45C | 0.0912
G7C G45A | 0.0964
G7A G13A | 0.0834
G7A G13C | 0.0492
G7A G13U | 0.0584
G7C A40G | 0.0675
C8G A22C | 0.437
G7A G48A | 0.26
G7A G48C | 0.457
G7A G48U | 0.381
G7C G36A | 0.0583
G7C G36U | 0.0725
C8A U18A | 0.111

Variant | self-cleavage
C8A U18G | 0.0805
G7U A32C | 0.0917
C8U A11C | 0.89
C8U A11U | 0.973
C8U A23C | 0.0653
G7U C15U | 0.101
G7U C15G | 0.0331
G7U G48C | 0.123
G7U G48U | 0.0928
C8A G44C | 0.276
C8A G44U | 0.271
G7C G43U | 0.0777
G7C G43A | 0.0617
G7C U12A | 0.0478
G7C U12G | 0.0541
G7A A30U | 0.425
G7A A30C | 0.108
G7A A33U | 0.269
U6G G42A | 0.0807
C8G G24U | 0.747
G7C C19U | 0.0513
G7C C19A | 0.0521
C8G U18A | 0.0816
C8U A32C | 0.733

Variant | self-cleavage
C8A G16A | 0.153
C8A G16C | 0.0923
C8G G36A | 0.129
C8G G36U | 0.11
G7U C46U | 0.103
G7U C46G | 0.047
G7A G16A | 0.226
G7A G16C | 0.084
G7A G16U | 0.161
C8G G45A | 0.207
C8G G45U | 0.183
C8G G45C | 0.118
C8A U12G | 0.213
C8A U12C | 0.504
C8G C20U | 0.0992
C8U A22G | 0.1
C8U A22U | 0.419
C8A G36U | 0.108
G7U G17C | 0.0441
G7U G17A | 0.0885
G7U G13U | 0.0485
C8G C15G | 0.062
G7A G45A | 0.397
G7A G45C | 0.139

Variant | self-cleavage
G7A A32G | 0.323
G7A A32U | 0.507
G7A A32C | 0.38
G7C G16A | 0.0653
G7C G16U | 0.0598
U6G G45A | 0.141
G7U G28C | 0.0665
G7U G28U | 0.0862
C8A A10U | 0.239
G7U C20U | 0.0823
G7U C20G | 0.0693
C8G G43C | 0.139
C8G G43U | 0.148
C8G G43A | 0.137
G7U G16C | 0.0533
C8A G41U | 0.146
C8A G41C | 0.124
U6G U31G | 0.429
U6G G44A | 0.229
U6G G44C | 0.234
G7C U18C | 0.0305
G7C U18G | 0.0952
C8A C9U | 0.0937
